Experimental findings from PMC8126724, “Infant-Associated Bifidobacterial β-Galactosidases and Their Ability to Synthesize Galacto-Oligosaccharides” (Frontiers in Microbiology, 2021) are described below.

Substrate in data set [1]: O=[N+]([O-])c1ccccc1O[C@@H]1O[C@H](CO)[C@H](O)[C@H](O)[C@H]1O
The data set can be described thus: o-nitrophenol release, A420. Conditions: 0.1 M sodium acetate pH 6.5, 40 °C, unit mM, not in table. The format is biochemical, Bifidobacterium breve. The source says:
o-nitrophenol release, A420 on BgaA

Substrate in data set [2]: O=[N+]([O-])c1ccccc1O[C@@H]1O[C@H](CO)[C@H](O)[C@H](O)[C@H]1O
The data set can be described thus: o-nitrophenol release, A420. The format is biochemical, Bifidobacterium breve. Conditions: 0.1 M sodium acetate pH 6.5, 40 °C, unit mM, not in table. The source says: o-nitrophenol release, A420 on BgaB
This is another data set of the same source.

B1: BgaA (Bifidobacterium breve UCC2003) (protein)
chain: MTNLQSAQQFSQAWLTDPRVFAVNRLAAHSSHKFYDHAPQCGEAMDLKQSLDGQWRVQMVDLADLADNELAEAAFAQPGYDAAGFSPIEVPSALETKGFLNHQYVNQQYPWSGHESPVAPDVPKHNHVALYRHEFSLEPKAAAVLEANKTAADDAAKRRVTLIFQGAATAIVVWLNGAFIGYAEDSFTPSEFDVTDVLRDGVNTLAVACFEFSSASWLEDQDFWRLHGIFRSVELEAQPLVHVNDLRVLADYDHTTGEGSLDVVALVRNAGTAAAVAATVLDAAGNTVWHSKLTAGADAETLTVKANVGKVNPWSAEEPTLYTLQVVATDAAGQVIEAALQRIGFRHFAIEDGLMKLNGKRIVFKGVDRHEFDARTGRTIAEADMIEDIHSFKRLNINAVRTSHYPNETRWYELCDEYGIYVLDETNLETHGSWTDPGDVFQPARAIPGSKDEWRAACVDRTASMVRRDYNHPSVVIWSLGNEAFGGDVFYSMRDFVHENDPFRPVHYEGTFNDPEFSAATDIMSRMYAKPDEIVKLYLGEDGKKPYISCEYSHSMGNSTGGLHLYTELERYPLYQGGFIWDYVDQALWQDCGDGTERLAYGGDFEDRPNDYEFSGDGVMFADRTPSPKAQEVKQLYANVKLVPDESGVTITNDNLFISTASSLFTARVLVDGVECWHANYRFDVPAGETVREPIAFPKVTDLVALSGSAEVTYEVDQRLAEATDWAPAGYELTFGQYVAAVSFDDGAADAVVAGDAEVAADGFNAGIHTDFGEVLLSKTQGGMVSFKRDGREMVIRRPNLTTFRALTDNDRGNGSGFERAQWMAAGRYARVTGTSVEETADGKGLKATYSYELADAKHTPVTVHYEVDAALRVHLTVKYPGEADAATLPAFGLEWILPKQYDRLRFYGLGPEETYADRLHGAKLGVFSRTAAEDCAPYLLPQETGNHEQVRWAEITDEYGHGMRVTAAGGTRFATSLLPYSSLMLEDALHQNELPKPRHTFLRLLAAQMGVGGDDTWGAPVHDEFQVPADQPLKLDVTLELI
notes: His6-tagged, expressed in Lactococcus lactis (pNZ8150), Ni-purified; dimer
A word on the Km: it is the concentration of substrate that gives half-maximal velocity. For the protein B1, in data set [1], the Km was 10.8 mM.

B2: BgaB (Bifidobacterium breve UCC2003) (protein)
chain: MEHREFKWPQPLAGGKPRIWYGGDYNPDQWPEEVWDEDVALMQKAGVNLVSVAIFSWAKLEPEEGVYDFDWLDRVIDKLGKAGIAVDLASGTASPPMWMTQAHPEILWVDYRGDVCQPGARQHWRATSPVFLDYALNLCRKMAEHYKDNPYVVSWHVSNEYGCHNRFDYSEDAERAFQKWCEKKYGTIDAVNDAWGTAFWAQRMNNFSEIIPPRFIGDGNFMNPGKLLDWKRFSSDALLDFYKAERDALLEIAPKPQTTNFMVSAGGAGIDYDKWGYDVDFVSNDHYFTPGEAHFDELAYSASLCDGIARKNPWFLMEHSSSAVNWRPINYRVEPGELVRDSLAHLAMGADAICYFQWRQSKAGAEKWHSSMVPHAGPDSQIFRDVCELGADLNKLADEGLLSTKLVKSKVAVVFDYESQWATEHTATPTQEVRHWTEPLAWFRALADNGLTADVVPVRGPWDEYEAVVLPSLTILSEETTRRVREYVANGGKLFVTYYTGLVDDKDHVWLGGYPGSIRDVVGVRVEEFAPMGNDFPGAMDHLDLDNGTVAHDFADVITSVADTAHVVASFKADKWTGFDGAPAITINDFGDGKAAYVGARLGREGLAKSLPALLEELGIETSAEDDRGEVLRVERADETGENHFVFLFNRTHDVAIVDVDGEPLVASLAQVNESEHTAAIQPNGVLVVKL
notes: His6-tagged, expressed in Lactococcus lactis (pNZ8150), Ni-purified; trimer
Turning to B2, in data set [2], the Km was 8.607 mM.
